Measurements published in the RNAGym collection of RNA variant scans (doi:10.7554/elife.90254).

B1: OR4K15 (parent)
chain: GUUAACGGUCAUAGGCCAUGGAAACUAGGAGCACCAUUUCGCUGCCAGUGAAGAAAUGAACAAAGAAAAUCUGGGCCAGGCAGGCAUCAAAAGAAAUAGUCUUGCGCUCAACCAGAAAGUCUGUAAUCAUUUUAAGGGUA

Variants of: B1
Experiment: self-cleavage, relative activity (ratio to wild type); higher = more cleavage; in vitro, sequencing; the parent is a self-cleaving ribozyme

Row | Variant | self-cleavage
1 | G53U A54U | 1.67
2 | A51U A118G | 0.6
3 | G53C U57G | 0.65
4 | A51G A62U | 1.49
5 | A51G A140U | 1.35
6 | A51G A140G | 1.62
7 | A54G C76G | 0.22
8 | A52G A63G | 1.33
9 | A51U G104A | 0.01
10 | G53U U87C | 0.98
11 | G53U U72A | 0.19
12 | A51G A125G | 0.97
13 | A51G A125U | 1.72
14 | A52U U120C | 1.21
15 | A51G U124A | 1.04
16 | A54G A86G | 1.28
17 | A54G A134U | 1.32
18 | A52U A78G | 0.24
19 | A52C U127A | 1.62
20 | A54C U87C | 1.45
21 | A54G A126G | 0.64
22 | A54G C77U | 1.46
23 | A51G C121U | 2.74
24 | G50C C85U | 1.4

Row | Variant | self-cleavage
25 | U49G U108A | 0.04
26 | A51U A94C | 0.55
27 | A51U A94U | 1.26
28 | A51G A52U | 1.49
29 | A51G A52G | 1.46
30 | A52G U57C | 1.1
31 | A52G C85U | 0.87
32 | A52U U87A | 1.78
33 | A52G A55G | 0.97
34 | A51G C109U | 0.4
35 | A51G A82U | 0.25
36 | G53A A89U | 2.31
37 | A51C A117G | 0.81
38 | A52G A98U | 2.16
39 | A51U C128A | 0.45
40 | G53U U70C | 1.29
41 | A54G A66U | 1.14
42 | A51G A94G | 1.2
43 | A51G A98U | 2.81
44 | A52G A60U | 0.9
45 | A52G A60G | 1.32
46 | A51G A134G | 1.55
47 | A51G A134C | 1.4
48 | A52U U130C | 1.8

Row | Variant | self-cleavage
49 | A52U A96G | 1.91
50 | A52U U127C | 0.98
51 | A52G U70A | 0.45
52 | A52G U70C | 0.79
53 | A52U A66G | 1.8
54 | A52U A66U | 1.48
55 | A51C A68G | 1.2
56 | A52G A118G | 1.21
57 | A52G U103C | 0.45
58 | A52U U57C | 1.45
59 | A52U | 0.8
60 | A52G | 1.11
61 | A52C | 0.57
62 | A54G C71U | 0.58
63 | A51G U131A | 0.59
64 | G50U U132C | 1.23
65 | A51G G104A | 0.03
66 | A52U U100C | 2.57
67 | A52G U133C | 1.33
68 | U49G U131C | 1.56
69 | A51G G123A | 2.08
70 | A52G A134G | 1.25
71 | A51U A64U | 1.15
72 | A52U A89G | 1.56

Row | Variant | self-cleavage
73 | A52G U124A | 1.03
74 | A52G U124C | 1.18
75 | A52U A90U | 2.35
76 | A52U A90G | 0.38
77 | A52C A95G | 1.94
78 | U49G U130A | 0.36
79 | A52U U97C | 0.96
80 | A52C U87C | 1.09
81 | A54G C105U | 0.36
82 | G50A A92U | 2.15
83 | A51U A60G | 0.92
84 | A51G A114U | 0.08
85 | A54G G84A | 2.33
86 | A51G A55G | 0.97
87 | A51G A55U | 1.2
88 | A51G G136U | 2.08
89 | G50A A69G | 1.85
90 | A52G A66G | 1.75
91 | A52G A66U | 1.54
92 | A51U A96G | 1.32
93 | A51U A98U | 2.9
94 | A51G A126C | 0.91
95 | A54G A64G | 1.77
96 | A52G A91U | 2.17

Row | Variant | self-cleavage
97 | G50U A56G | 1.63
98 | A54C A118G | 1.49
99 | A51C U108C | 0.01
100 | A54G A118G | 1.08
101 | A54G A118U | 0.84
102 | A51G A96G | 1.47
103 | G50A A95U | 1.28
104 | A52G G83A | 1.07
105 | G53A U102A | 0.68
106 | A54G A96G | 1.5
107 | A54G C88U | 1.51
108 | A52G A95C | 0.6
109 | A51G G80A | 0.36
110 | A52G A129G | 1.3
111 | A52G A129U | 0.71
112 | A51C A110U | 0.82
113 | A51G U70A | 1.23
114 | A52C A66G | 1.59
115 | A54G A117G | 1.68
116 | A54C U122C | 0.42
117 | A54C U57C | 1.29
118 | G50U A62C | 2.27
119 | A54G A59G | 0.84
120 | A51U A55G | 0.55

Row | Variant | self-cleavage
121 | A52U G137A | 1.58
122 | A52U G99A | 0.22
123 | A51G A78U | 0.35
124 | A51G A60U | 1.68
125 | A52C A63G | 2.56
126 | A51C G73C | 0
127 | G50U C121A | 2.92
128 | A54G A90U | 1.57
129 | A52U C113U | 0.06
130 | G50A A66U | 0.67
131 | A52G A68U | 1.66
132 | A52G A68G | 1.5
133 | A51C A92U | 0.57
134 | A51U A68G | 1.24
135 | A51U A68C | 1.91
136 | G50U U127C | 1.29
137 | A51G A90G | 1.29
138 | G53A A86G | 1.83
139 | A51G A86G | 1.46
140 | A51G C71A | 0.89
141 | A52G A67G | 1.13
142 | A52G U122A | 0.76
143 | A52G U122G | 1.94
144 | G53A A78U | 0.52

Row | Variant | self-cleavage
145 | G53A A78G | 0.22
146 | A51G A118U | 0.39
147 | A51G A129U | 0.76
148 | G53A | 1.21
149 | G53U | 1.7
150 | G53C | 1.74
151 | A54G A82C | 0.13
152 | A52C A114G | 0.25
153 | A51G U132C | 0.81
154 | A51G U132A | 1.68
155 | A51C A91G | 1.33
156 | G50A C71U | 0.42
157 | A54G G75A | 0.14
158 | A51U G106A | 0.03
159 | A52G A110U | 1.17
160 | A52G A110C | 0.26
161 | A51G A95U | 0.89
162 | A54C A68G | 1.03
163 | A52C A62G | 0.91
164 | G50A A51G | 1.82
165 | A52U A125G | 0.79
166 | A51G A63U | 1.83
167 | A51G A63G | 1.17
